Reference: publication PMC5646240, “Norovirus Escape from Broadly Neutralizing Antibodies Is Limited to Allostery-Like Mechanisms” (mSphere, 2017)

B1: monoclonal antibody 2D3.7 (IgA) (antibody, V domains shown)
VH: VQLQESGPGLVAPSQSLSITCTVSGFSLTSYGVHWIRQPSGKGLEWLGVIWPGGSTNYNSALMSRLSISKDNSQSQVVLKMNSLQTDDSAMYYCARGRVAAWFAYWGQGTLVTVSA
VL: DIVMTQSQKFMSTSVGDRVSVTCTASQNVGTSVAWYLQRPGQSPEALIYSASYRNSGVPDRFTGSGSGTDFTLTISNVQSEDLADYFCQQYNNYPFTFGSGTKLEIK
notes: VH before the CDR3 loop; heavy chain CDR3 loop as printed; nearly identical to the light chain variable domain of PDB 2AEQ; IgA; also called MAb 2D3; IgA MAb 2D3
B2: murine norovirus MNV1.CW3 (GV/MNV1/2002/USA) virions, capsid protein (natural protein)
chain: MRMSDGAAPKANGSEASGQDLVPAAVEQAVPIQPVAGAALAAPAAGQINQIDPWIFQNFVQCPLGEFSISPRNTPGEILFDLALGPGLNPYLAHLSAMYTGWVGNMEVQLVLAGNAFTAGKVVVALVPPYFPKGSLTTAQITCFPHVMCDVRTLEPIQLPLLDVRRVLWHATQDQEESMRLVCMLYTPLRTNSPGDESFVVSGRLLSKPAADFNFVYLTPPIERTIYRMVDLPVIQPRLCTHARWPAPVYGLLVDPSLPSNPQWQNGRVHVDGTLLGTTPISGSWVSCFAAEAAYKFQSGTGEVATFTLIEQDGSAYVPGDRAAPLGYPDFSGQLEIEVQTETTKTGDKLKVTTFEMILGPTTNADQAPYQGRVFASVTAAASLDLVDGRVRAVPRSIYGFQDTIPEYNDGLLVPLAPPIGPFLPGEVLLRFRTYMRQIDTADAAAEAIDCALPQEFVSWFASNAFTVQSEALLLRYRNTLTGQLLFECKLYNEGYIALSYSGSGPLTFPTDGIFEVVSWVPRLYQLASVGSLATGRMLKQ
notes: capsid protein (VP1) of murine norovirus 1, strain MNV1.CW3, in whole infectious virions; S domain and P domain; Whole virions with a T=3 capsid; the antigen of the antibodies is the capsid protein; The UniProt entry recalled is of MNV1, not checked for the CW3 clone; also called MVV1; source: RAW 264.7 cells, infected; concentrated virus stock (ELISA); purified virions (ultracentrifugation, …)

Legend:
[1] = biological target: murine norovirus S99 (Berlin/06/06/DE) virions, capsid protein (murine norovirus (strain S99))
[2] = biological target: murine norovirus WU11 (GV/WU11/2005/USA) virions, capsid protein (Murine norovirus GV/WU11/2005/USA, UniProt A7YJZ2, strain); experiment: cell-based or functional assay
[3] = biological target: murine norovirus WU20 (GV/WU20/2005/USA) virions, capsid protein (Murine norovirus GV/WU20/2005/USA, UniProt A7YJZ8, strain); experiment: cell-based or functional assay
[4] = biological target: murine norovirus MNV1.CW3 (GV/MNV1/2002/USA) virions, capsid protein (murine norovirus (MNV1.CW3), UniProt Q80J94); experiment: cell-based or functional assay
[5] = biological target: murine norovirus CR1 (GV/CR1/2005/USA) virions, capsid protein (Murine norovirus GV/CR1/2005/USA, UniProt A7YK19, strain); experiment: cell-based or functional assay
[6] = biological target: murine norovirus CR3 (GV/CR3/2005/USA) virions, capsid protein (Murine norovirus GV/CR3/2005/USA, UniProt A7YK22, strain); experiment: cell-based or functional assay
[7] = biological target: murine norovirus CR6 (GV/CR6/2005/USA) virions, capsid protein (Murine norovirus GV/CR6/2005/USA, UniProt A7YK31, strain); experiment: cell-based or functional assay
[8] = biological target: murine norovirus CR7 (GV/CR7/2005/USA) virions, capsid protein (Murine norovirus GV/CR7/2005/USA, UniProt A7YK34, strain); experiment: cell-based or functional assay
[9] = biological target: murine norovirus MNV3 virions, capsid protein (Murine norovirus, strain MNV3, UniProt Q38JA1, strain); experiment: cell-based or functional assay
[10] = biological target: murine norovirus MNV4 virions, capsid protein (Murine norovirus, strain MNV4, UniProt Q38J98, strain); experiment: cell-based or functional assay
[11] = biological target: T1, human norovirus genogroup I Norwalk virus (NV) virus-like particles (Human norovirus GI, strain of AY502016 …, UniProt Q6EAV2); experiment: ELISA; data not shown; HuNoV VLPs (1 µg of each VLP per well in 100 µl PBS, 24 h at 4°C) tested with the MAbs; details: both partners purified
T1 construct: capsid protein of human norovirus genogroup I strain Norwalk virus, as virus-like particles; also called Norwalk virus VLP; source: provided by Grant Hansman (University of Heidelberg); expressed and purified as previously described (62)

[12] = biological target: T2, human norovirus GII.4 Saga (2006-Saga) virus-like particles (Norovirus Hu/GII-4/Saga1/2006/JP …, UniProt B5BTR4, strain); experiment: as above; details: both partners purified
T2 construct: capsid protein of human norovirus GII.4 Saga (2006), as virus-like particles; also called 2006-Saga [GII.4]; source: provided by Grant Hansman (University of Heidelberg); expressed and purified as previously described (62)

[13] = biological target: T3, human norovirus GII.4 Sydney (2012-Sydney) virus-like particles (Human norovirus GII.4 …, UniProt K4LM89, strain); experiment: as above; details: both partners purified
T3 construct: capsid protein of human norovirus GII.4 Sydney (2012), as virus-like particles; also called 2012-Sydney [GII.4]; source: provided by Grant Hansman (University of Heidelberg); expressed and purified as previously described (62)

[14] = biological target: T4, human norovirus GII.10 Vietnam026 virus-like particles (Human norovirus GII.10 Vietnam026, UniProt Q5F4T5, strain); experiment: as above; details: both partners purified
T4 construct: capsid protein of human norovirus GII.10 Vietnam026, as virus-like particles; also called Vietnam026 [GII.10]; source: provided by Grant Hansman (University of Heidelberg); expressed and purified as previously described (62)

[15] = biological target: T5, human norovirus GII.12 Hiro virus-like particles (Human norovirus GII.12 Hiro, UniProt Q54AD6, strain); experiment: as above; details: both partners purified
T5 construct: capsid protein of human norovirus GII.12 Hiro, as virus-like particles; also called Hiro [GII.12]; source: provided by Grant Hansman (University of Heidelberg); expressed and purified as previously described (62)

[16] = biological target: the molecule itself; experiment: cryo-EM structure; 2D3 Fab added to purified infectious MNV1 virions; image reconstruction at 8.7 Å (FSC 0.143) / 9.9 Å (FSC 0.5), fitted with atomic models of the P domain dimer and a modelled Fab

| Binder | plaque neutralization assay: 5 × 10^4 PFU with 0 to 1,000 ng MAb, 30 min at 37°C; virus titer relative to no antibody [1] [log] | plaque neutralization assay: 5 × 10^4 PFU with 0 to 1,000 ng MAb, 30 min at 37°C; virus titer relative to no antibody [2] [log] | plaque neutralization assay: 5 × 10^4 PFU with 0 to 1,000 ng MAb, 30 min at 37°C; virus titer relative to no antibody [3] [log] | plaque neutralization assay: 5 × 10^4 PFU with 0 to 1,000 ng MAb, 30 min at 37°C; virus titer relative to no antibody [4] [log] | plaque neutralization assay: 5 × 10^4 PFU with 0 to 1,000 ng MAb, 30 min at 37°C; virus titer relative to no antibody [5] [log] | plaque neutralization assay: 5 × 10^4 PFU with 0 to 1,000 ng MAb, 30 min at 37°C; virus titer relative to no antibody [6] [log] | plaque neutralization assay: 5 × 10^4 PFU with 0 to 1,000 ng MAb, 30 min at 37°C; virus titer relative to no antibody [7] [log] | plaque neutralization assay: 5 × 10^4 PFU with 0 to 1,000 ng MAb, 30 min at 37°C; virus titer relative to no antibody [8] [log] | plaque neutralization assay: 5 × 10^4 PFU with 0 to 1,000 ng MAb, 30 min at 37°C; virus titer relative to no antibody [9] [log] | plaque neutralization assay: 5 × 10^4 PFU with 0 to 1,000 ng MAb, 30 min at 37°C; virus titer relative to no antibody [10] [log] | binding result [11] | binding result [12] | binding result [13] | binding result [14] | binding result [15] | binding result [16] |
| --- | --- | --- | --- | --- | --- | --- | --- | --- | --- | --- | --- | --- | --- | --- | --- | --- |
| B1 | > 1 | ≥ 1 | ≥ 1 | ≥ 1 | ≥ 1 | ≥ 1 | ≥ 1 | ≥ 1 | ≥ 1 | ≥ 1 | no binding | no binding | no binding | no binding | no binding |  |
| B2 |  |  |  |  |  |  |  |  |  |  |  |  |  |  |  | binds |
